The values that follow come from PMC6748581.

What all share (experiment): SPR
Assay [1] concerns the target Anti-IL-13 IgG1 ΔK-C242 IgA2m1 Fc Dimer (human) (UniProt P01591).
In assay [2] the target is Anti-IL-13 IgG1 ΔK-P221 IgA2m1 Fc Dimer (human) (UniProt P01591).
Assay [3] deals with anti-mIL-13 IgA1 Dimer (human) (UniProt P01591).
Assay [4] deals with anti-mIL-13 IgA1 Monomer (human).
Assay [5] concerns the target anti-mIL-13 IgA2m1 Dimer (human) (UniProt P01591).
Assay [6] addresses anti-mIL-13 IgA2m1 Monomer (human).
For assay [7], the target named is anti-mIL-13 IgA2m1 P221R Dimer (human) (UniProt P01591).
Assay [8] addresses anti-mIL-13 IgA2m1 P221R Monomer (human).
The target in assay [9] is anti-mIL-13 IgA2m2 Dimer (human) (UniProt P01591).
The target in assay [10] is anti-mIL-13 IgA2m2 Monomer (human).
In assay [11] the target is anti-mIL-13 IgA2m2 Tetramer (human) (UniProt P01591).
Assay [12] concerns the target anti-mIL-13 human IgG1 (human).
The target of assay [13] is Anti-HER2 IgA2m2 Polymer Aglycosylated (human) (UniProt P01591).

For the molecule “human Fc alpha receptor 1 (from UniProt P24071)”, the Kd in assay [1] amounted to 938 nM; in assay [2], 1070 nM; in [3], 369 nM; in assay [4] it was 425 nM; in assay [5] it was 499 nM; in [6], 429 nM. Moreover, the Kd in [7] came out at 462 nM; in assay [8], 443 nM; in assay [9], 597 nM; in assay [10], 455 nM; in assay [11], 533 nM.

On to “human FcRn co-expressed with human beta-2 microglobulin (from UniProt P55899;P61769) (complex)”, for which the values for the Kd in assay [1], in [2] and in assay [12] were 9900 nM, 8400 nM and 9800 nM, respectively.

Turning to “human polymeric immunoglobulin receptor (from UniProt P01833)”, the Kd in assay [13] turned out to be 0.72 nM; in assay [1] it was 4.41 nM; in [2], 7.67 nM; in assay [3], 8.8 nM; in assay [5], 5.05 nM; in assay [7], 15.5 nM. The Kd came to 13.9 nM in [9] and 1.93 nM in assay [11].

With “mouse FcRn co-expressed with mouse beta-2 microglobulin (from UniProt Q61559;P01887) (complex)”, the results for the Kd in assay [1], in [2] and in [12] were 7400 nM, 6800 nM and 7800 nM, respectively.

As for “mouse polymeric immunoglobulin receptor (from UniProt O70570)”, the dissociation constant (Kd) in assay [13] is 0.55 nM.

B1: mouse polymeric immunoglobulin receptor (receptor)
chain: KSPIFGPQEVSSIEGDSVSITCYYPDTSVNRHTRKYWCRQGASGMCTTLISSNGYLSKEYSGRANLINFPENNTFVINIEQLTQDDTGSYKCGLGTSNRGLSFDVSLEVSQVPELPSDTHVYTKDIGRNVTIECPFKRENAPSKKSLCKKTNQSCELVIDSTEKVNPSYIGRAKLFMKGTDLTVFYVNISHLTHNDAGLYICQAGEGPSADKKNVDLQVLAPEPELLYKDLRSSVTFECDLGREVANEAKYLCRMNKETCDVIINTLGKRDPDFEGRILITPKDDNGRFSVLITGLRKEDAGHYQCGAHSSGLPQEGWPIQTWQLFVNEESTIPNRRSVVKGVTGGSVAIACPYNPKESSSLKYWCRWEGDGNGHCPVLVGTQAQVQEEYEGRLALFDQPGNGTYTVILNQLTTEDAGFYWCLTNGDSRWRTTIELQVAEATREPNLEVTPQNATAVLGETFTVSCHYPCKFYSQEKYWCKWSNKGCHILPSHDEGARQSSVSCDQSSQLVSMTLNPVSKEDEGWYWCGVKQGQTYGETTAIYIAVEERTRGSSHVNPTDANARAKVALEEEVVDSSISEKENKAIPNPGPFANEREIQNVGDQAQENRASGDAGSADGQSRSSSSK
Take B1: the Kd in [1] came out at 3.32 nM; in assay [2], 3.32 nM; in [3], 2.66 nM; in [5], 2.54 nM; in assay [7] it was 5.59 nM; in assay [9], 2.45 nM. The Kd in assay [11] was 0.69 nM.
